We go through 14 molecules from US20200325187A1 (Genentech, published 2020).

Assay [1] has as its target T1, hVEGF-A (human, UniProt P15692-4 27-191, limits assumed). As to the kind of experiment: cell-based or functional assay.
The target in assay [2] is T1, hVEGF-A.
Assay [3] deals with T2, LRP6 (human, UniProt O75581 20-1613). Put plainly: cell-based or functional assay.
The target in another assay is T3, LRP6 E1E2 protein (human, UniProt O75581 20-630, limits assumed).
T3 construct: domain: E1E2
T3 sequence (looked up): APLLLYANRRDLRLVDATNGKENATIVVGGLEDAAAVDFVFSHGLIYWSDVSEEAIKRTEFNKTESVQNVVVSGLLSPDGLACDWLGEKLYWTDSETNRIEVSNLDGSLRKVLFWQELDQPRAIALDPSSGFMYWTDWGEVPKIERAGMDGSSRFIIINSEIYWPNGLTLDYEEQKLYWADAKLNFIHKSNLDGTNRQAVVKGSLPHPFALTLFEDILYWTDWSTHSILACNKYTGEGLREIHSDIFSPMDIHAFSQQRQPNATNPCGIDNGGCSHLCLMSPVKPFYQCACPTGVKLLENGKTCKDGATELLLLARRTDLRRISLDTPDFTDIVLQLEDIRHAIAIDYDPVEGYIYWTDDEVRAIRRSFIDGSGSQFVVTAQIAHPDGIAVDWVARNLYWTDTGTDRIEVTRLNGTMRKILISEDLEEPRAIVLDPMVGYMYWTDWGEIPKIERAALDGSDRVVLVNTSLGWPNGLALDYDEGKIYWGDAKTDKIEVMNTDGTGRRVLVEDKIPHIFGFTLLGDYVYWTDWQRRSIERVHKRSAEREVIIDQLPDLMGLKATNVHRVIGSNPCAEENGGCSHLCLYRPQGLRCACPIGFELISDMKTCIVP
As to the kind of experiment: spot phage ELISA.

Assay [4] deals with T2, LRP6. Put plainly: cell-based or functional assay. The source holds these as a separate data set.
Assay [5] addresses T1, hVEGF-A. As to the kind of experiment: cell-based or functional assay. The source holds these as a separate data set.
Assay [6] deals with T1, hVEGF-A. As to the kind of experiment: SPR. As to the method: Depending on the format of the assay either a streptavidin sensor (SA) or a dextran-coated (CM5) sensor was utilized as described below.
Reaction was then quenched by addition of 10 molar excess of Glycine pH 8.0 and the sample was buffer exchanged into PBS using an Amicon 0.5 mL 3000 MWCO ultra-centrifugal filters (EMD Millipore). The biotinylation state of the protein was verified by LC-MS analysis. Biotinylated VEGF-A was then captured on the surface until a resonance unit (RU) signal of about ˜400. For immobilization of VEGF-A on CM5 sensor, the surface was first activated with a mixture of N-ethyl-N′-(3-dimethylaminopropyl)carbodiimide hydrochloride and N-hydroxysuccinimide (EDC/NHS) according to the supplier instructions. VEGF-A was then diluted into coupling buffer (0.1 M Acetate Buffer, pH 5.0) and injected until the signal reached about ˜400 RU followed by a wash with 1 M ethanolamine pH 8.0 to quench remaining activated sites.
A general note: Surface plasmon resonance follows binding to a sensor surface in real time, without labels.

The target in assay [7] is T4, hVEGF-A (8-109) (human, UniProt P15692 214-315).
T4 sequence (looked up): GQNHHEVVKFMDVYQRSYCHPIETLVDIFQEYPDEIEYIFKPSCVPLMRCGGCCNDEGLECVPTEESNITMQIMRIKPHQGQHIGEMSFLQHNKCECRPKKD
Put plainly: phage competition ELISA. (An ELISA detects its analyte on a solid surface through an enzyme-linked reagent.)

The target in assay [8] is T4, hVEGF-A (8-109). Put plainly: phage competition ELISA (clone on phage; the concentration varied on the axis is that of hVEGF (8-109)).
Assay [9] addresses T1, hVEGF-A. As to the kind of experiment: phage competition ELISA, soluble CKP.
Assay [10] has as its target T4, hVEGF-A (8-109). As to the kind of experiment: spot phage ELISA. The gist of the method: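 Phage clones from four selection rounds were grown overnight at 37 °C with M13-KO7 helper phage. Bound phage was detected with anti-M13-HRP and TMB, with binding to BSA alone run in parallel as background.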
Assay [11] concerns the target T1, hVEGF-A. As to the kind of experiment: cell-based or functional assay. This is another data set of the same source.
Assay [12] concerns the target T1, hVEGF-A. As to the kind of experiment: cell-based or functional assay. The source holds these as a separate data set.
Assay [13] deals with T4, hVEGF-A (8-109). Put plainly: spot phage ELISA. On the procedure: (§1) After four rounds of binding selection, individual phage clones were picked and inoculated into 450 μl 2YT media containing 50 µg/ml Carbenecillin and M13-KO7 helper phage in 96-well blocks, which were grown at 37° C. overnight. […] The plates were washed and bound phage was detected with anti-M13-HRP followed by TMB substrate. In these assays, phage binding to BSA alone was tested in parallel to assess background binding. […] Positive clones were subjected to DNA sequence analysis.
The source holds these as a separate data set.

Assay [14] concerns the target T1, hVEGF-A. As to the kind of experiment: KDR-VEGF competition ELISA.
Assay [15] deals with T4, hVEGF-A (8-109). Put plainly: spot phage ELISA. On the procedure:
as §1
This is another data set of the same source.

Assay [16] addresses T1, hVEGF-A. As to the kind of experiment: phage competition ELISA, soluble CKP. The source holds these as a separate data set.

Where two headings read alike, the source gives them in different places.

Turning to GCNIMLPFWGCGRDFECMEQCICQYYQSCG (designed binder) [VEGF_CKP9.54.90.67], in the assay with hVEGF-A [1], the Cellular IC50 was determined as 1.1 nM and the FOLD [..] [..] TO VARIANT 9.54.90 worked out at 1.23 fold. This molecule also yielded an IC50 (read off the curve) with hVEGF-A [2] of 12 to 20 nM.

As to GCRNSIKRCKQNSDCLAGCVCSVGHGCG (designed binder) [LRP6_CKP6], in the assay with LRP6 [3], the “Best Fit IC50 (nM) for Wnt3a (25 ng/well), luciferase reporter, fraction F1” value is 350000 nM and the “Best Fit IC50 (nM) for Wnt3a (25 ng/well), luciferase reporter, fraction F2” value turned out to be 276000 nM. Besides, in the assay with LRP6 E1E2 protein, the ELISA was 3.1 and the S/N vs BSA was found to be 37.4. Besides, in the assay with LRP6 [4], the “Best Fit IC50 (nM) for Wnt1 (5 ng/well), luciferase reporter, fraction F1” value worked out at 22900 nM; the “Best Fit IC50 (nM) for Wnt1 (5 ng/well), luciferase reporter, fraction F2” value amounted to 23800 nM; the “Best Fit IC50 (nM) for Wnt1 (5 ng/well), luciferase reporter, fraction F3” value was 4620 nM.

In the assay with hVEGF-A [1], GCNIMLPFWGCGRDFECMSDCICQYYQSCG (designed binder) [VEGF_CKP9.54.90.12] yielded a Cellular IC50 of 1.2 nM and an FOLD [..] [..] TO VARIANT 9.54.90 of 1.12 fold. For the same molecule, the IC50 (read off the curve) with hVEGF-A [2] turned out to be 30 nM.

A word on the Kd: it is the constant that tells how readily two partners part at equilibrium. The low end stands for tighter binding, the high end for weaker binding. As for GCNIMLPYWGCGRDFECLAGCVCQYYQSCG (designed binder) [VEGF_CKP9.54.90.F8Y], in the assay with hVEGF-A [5], the “Cellular IC50” value was determined as 1.58 nM and the “FOLD [..] [..] TO VARIANT 9.54.90” value stood at 0.85 fold. The molecule further showed a Kd in the assay with hVEGF-A [6] of 0.4 nM.

In the assay with hVEGF-A [1], GCNIMLPFWGCGRDFECMNQCICQYYQSCG (designed binder) [VEGF_CKP9.54.90.13] yielded a Cellular IC50 of 0.96 nM and an FOLD [..] [..] TO VARIANT 9.54.90 of 1.41 fold. Besides, in the assay with hVEGF-A [2], the IC50 (read off the curve) worked out at 20 nM.

As for GCNIMLPFWGCGRDFECFYECICQYYQSCG (designed binder) [VEGF_CKP9.54.90.62], in the assay with hVEGF-A [1], the Cellular IC50 worked out at 0.92 nM and the FOLD [..] [..] TO VARIANT 9.54.90 came out at 1.47 fold. The molecule further showed an IC50 (read off the curve) in the assay with hVEGF-A [2] of 20 nM.

For the molecule GCNIMLPFWGCGQSFECLAGCICQYYQSCGTR (designed binder) [9.54.1-36], in the assay with hVEGF-A (8-109) [7], the “fold improvement in binding affinity compared to 9.54.1” value (“fold improvement … to 9.54.1” for short) is roughly 10 fold. The “IC50 (read off the curve)” value in the assay with hVEGF-A (8-109) [8] is roughly 0.06 nM.

Take GCNIMLPFWGCGQSFECLAGCICQYYQSCGVH (designed binder) [9.54.1-90]: the “fold improvement … to 9.54.1” value with hVEGF-A (8-109) [7] was roughly 10 fold. Moreover, in the assay with hVEGF-A (8-109) [8], the “IC50 (read off the curve)” value was roughly 0.08 nM.

For the molecule GCNIMLPFWGCGQSFECLAGCICQYYQSCGLS (designed binder) [9.54.1-42], the “fold improvement … to 9.54.1” value with hVEGF-A (8-109) [7] is roughly 10 fold. For the same molecule, the “IC50 (read off the curve)” value in the assay with hVEGF-A (8-109) [8] was roughly 0.08 nM.

GCNIMLPFWGCGQSFECLAGCICQYYQSCGGS (designed binder) [9.54.1-63]: in the assay with hVEGF-A (8-109) [7], the “fold improvement … to 9.54.1” value was roughly 10 fold.

For the molecule GCSNRVKVRACKQDSDCLAGCVCGPNGFCG (designed binder) [LRP6_CKP19], in the assay with LRP6 [3], the “Best Fit IC50 (nM) for Wnt3a (25 ng/well), luciferase reporter, fraction F1” value was 59300 nM and the “Best Fit IC50 (nM) for Wnt3a (25 ng/well), luciferase reporter, fraction F2” value turned out to be 69800 nM. In the assay with LRP6 E1E2 protein, the ELISA amounted to 3.27 and the “S/N vs BSA” value came to 42. In addition, in the assay with LRP6 [4], the “Best Fit IC50 (nM) for Wnt1 (5 ng/well), luciferase reporter, fraction F1” value came out at 23100 nM and the “Best Fit IC50 (nM) for Wnt1 (5 ng/well), luciferase reporter, fraction F2” value is 49300 nM.

One may read the IC50 as the concentration needed to halve the response being measured. The low end stands for higher potency, the high end for lower potency. As for GCQLMQPFWGCKQDSDCLAGCVCHWYQSCG (designed binder, also called E9) [VEGF_CKP9], the results for the IC50 with hVEGF-A [9], with hVEGF-A [14] and with hVEGF-A [16] were 1360 nM, 569 nM and 600 nM, respectively. Further, the ELISA came to 3.3 with hVEGF-A (8-109) [10], 0.4 with hVEGF-A (8-109) [13] and 0.4 with hVEGF-A (8-109) [15]. Also, the results for the “S/N vs BSA” value in the assay with hVEGF-A (8-109) [10], with hVEGF-A (8-109) [13] and with hVEGF-A (8-109) [15] were 36, 7.4 and 7.4, respectively. Also, the “Cellular IC50” value in the assay with hVEGF-A [11] and with hVEGF-A [12] was 11700 nM in each case. Moreover, binding with hVEGF-A [6] was characterised by a dissociation constant (Kd) of 5000 nM.

Molecule GCDVLQPFWGCKQDSDCLAGCVCHWYQSCG (designed binder) [VEGF_CKP9.2] had an IC50 with hVEGF-A [9] of 168 nM. In addition, the “Cellular IC50” value with hVEGF-A [11] turned out to be 270 nM. Further, in the assay with hVEGF-A (8-109) [15], the ELISA is 2.4 and the “S/N vs BSA” value came to 31.1.

GCNIMLPFWGCKQDFDCLAGCICQYYQSCGFH (designed binder) [9.54-28]: the “fold improvement in binding affinity compared to 9.54” value with hVEGF-A (8-109) [7] was roughly 10 fold. Further, the “IC50 (read off the curve)” value with hVEGF-A (8-109) [8] is roughly 0.1 nM.
